From the supplement of paper PMC7877785
± gives the uncertainty stated by the source.

Experiment: self-splicing fitness, log relative to wild type (ln ratio); higher = more splicing; Tetrahymena group I intron in knt gene, E. coli kanamycin selection, DiMSum; sequences stand for … in CUCUCU…GGAGGGAAAAGUUAUCAGGCAUGCACCUGGUAGCUAGUCUUUAAACCAAUAGAUUGCAUCGGUUUAAAAGGCAAGACCGUCAAAUUGCGGGAAAGGGGUCAACAGCCGUUCAGUACCAAGUCUCAGGGGAAACUUUGAGAUGGCCUUGCAAAGGGUAUGGUAAUAAGCUGACGGACAUGGUCCUAACCACGCAGCCAAGUCCUAAGUCAACAGAUCUUCUGUUGAUAUGGAUGCAGUUCACAGACUAAAUGUCGGUCGGGGAAGAUGUAUUCUUCUCAUAAGAUAUAGUCGGACCUCUCCUUAAUGGGAGCUAGCGGAUGAAGUGAUGCAACACUGGAGCCGCUGGGAACUAAUUUGUAUGCGAAAGUAUAUUGAUUAGUUUUGGAGUACUCGUGGUCG
How it was run: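 DiMSum derived fitness as the error-weighted combination of fold changes across replicates, kanamycin versus no kanamycin, normalised to wild type. E. coli BL21(DE3) held the library, which randomised all eight P1ex-region intron nucleotides within the knt kanamycin-resistance gene on pET-22b(+). Six replicate transformations grew overnight at 37°C or 30°C on LB agar with or without 25 μg/mL kanamycin, also containing 100 μg/mL carbenicillin, 50 μM IPTG and 0.2% rhamnose, and pooled colonies were amplicon-sequenced on an Illumina HiSeq 2500.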

Sequence	self-splicing fitness (ln) (30 °C)	self-splicing fitness (ln) (37 °C)
CUCCAGCAAUAUUACGAAAA	-2.78 ± 0.28	-1.89 ± 0.3
CUCCAGCAAUAUUACGAAGC	-3.5 ± 0.23	-2.6 ± 0.32
CUCCAGCAAUAUUACGACUC	-3.66 ± 0.24	-2.24 ± 0.38
CUCCAGCAAUAUUACGAGGG	-3.65 ± 0.17	-2.89 ± 0.25
CUCCAGCAAUAUUACGAUCG	-1.49 ± 0.063	-0.922 ± 0.075
CUCCAGCAAUAUUACGAUGG	-4.58 ± 0.32	-3.19 ± 0.26
CUCCAGCAAUAUUACGCAAG	-3.52 ± 0.26	-1.41 ± 0.18
CUCCAGCAAUAUUACGCACU	-2.56 ± 0.14	-3.09 ± 0.32
CUCCAGCAAUAUUACGCAGC	-2.51 ± 0.15	-2.25 ± 0.49
CUCCAGCAAUAUUACGCAUC	-4.12 ± 0.42	-2.4 ± 0.37
CUCCAGCAAUAUUACGCGCC	-2.7 ± 0.29	-2.05 ± 0.38
CUCCAGCAAUAUUACGCGUA	–	-2.56 ± 0.25
CUCCAGCAAUAUUACGCGUC	-3.46 ± 0.28	–
CUCCAGCAAUAUUACGCUUU	-2.78 ± 0.19	-2.8 ± 0.26
CUCCAGCAAUAUUACGGAAU	-4.1 ± 0.21	-2.27 ± 0.16
CUCCAGCAAUAUUACGGACA	-0.816 ± 0.14	-0.868 ± 0.15
CUCCAGCAAUAUUACGGCUG	-2.12 ± 0.22	-2.99 ± 0.4
CUCCAGCAAUAUUACGGGAC	-2.79 ± 0.11	-2.17 ± 0.14
CUCCAGCAAUAUUACGGUCU	-4 ± 0.23	-2.31 ± 0.2
CUCCAGCAAUAUUACGUACA	-3.85 ± 0.19	-2.08 ± 0.2
CUCCAGCAAUAUUACGUAGC	-2.49 ± 0.2	-2.36 ± 0.25
CUCCAGCAAUAUUACGUCGC	-4.34 ± 0.23	-2.96 ± 0.23
CUCCAGCAAUAUUACGUGGA	-3.5 ± 0.18	-2.7 ± 0.16
CUCCAGCAAUAUUACGUUGC	-3.98 ± 0.27	-1.77 ± 0.15
CUCGAGCAAUAUUACGAACU	-3.1 ± 0.26	-2.8 ± 0.43

Sequence	self-splicing fitness (ln) (30 °C)	self-splicing fitness (ln) (37 °C)
CUCGAGCAAUAUUACGAAGC	-3.7 ± 0.16	-3.28 ± 0.21
CUCGAGCAAUAUUACGAUGG	-1.83 ± 0.083	-1.61 ± 0.1
CUCGAGCAAUAUUACGAUUG	-2.53 ± 0.34	-2.04 ± 0.3
CUCGAGCAAUAUUACGCAUA	-2.34 ± 0.26	–
CUCGAGCAAUAUUACGCGAU	-3.25 ± 0.17	-2.96 ± 0.23
CUCGAGCAAUAUUACGCGUG	-3.43 ± 0.26	-2.03 ± 0.19
CUCGAGCAAUAUUACGCGUU	-3.72 ± 0.31	-0.305 ± 0.2
CUCGAGCAAUAUUACGCUAU	-2.92 ± 0.26	-2.8 ± 0.26
CUCGAGCAAUAUUACGGAUC	–	0.135 ± 0.27
CUCGAGCAAUAUUACGGAUU	-3.59 ± 0.19	-2.98 ± 0.27
CUCGAGCAAUAUUACGGUGA	-2.66 ± 0.19	-0.793 ± 0.16
CUCGAGCAAUAUUACGUAUC	-4.31 ± 0.3	-2.78 ± 0.29
CUCGAGCAAUAUUACGUCAC	-3.1 ± 0.3	-1.11 ± 0.22
CUCGAGCAAUAUUACGUCGA	-3.29 ± 0.28	-1.67 ± 0.24
CUCUAGCAAUAUUACGAAAU	-3.13 ± 0.21	-3.18 ± 0.27
CUCUAGCAAUAUUACGACAU	-3.866 ± 0.033	-3.6 ± 0.044
CUCUAGCAAUAUUACGCAAC	-3.63 ± 0.2	-3.59 ± 0.28
CUCUAGCAAUAUUACGCACU	-2.77 ± 0.31	-3.07 ± 0.25
CUCUAGCAAUAUUACGCCAG	-2.53 ± 0.32	–
CUCUAGCAAUAUUACGCCUC	-1.49 ± 0.3	–
CUCUAGCAAUAUUACGCGAA	-2.68 ± 0.24	-3.56 ± 0.28
CUCUAGCAAUAUUACGGAGA	-1.93 ± 0.47	-0.951 ± 0.27
CUCUAGCAAUAUUACGGAGG	-2.14 ± 0.2	-1.32 ± 0.21
CUCUAGCAAUAUUACGGUAC	-2.88 ± 0.39	-4.12 ± 0.46
CUCUAGCAAUAUUACGGUAG	-4.49 ± 0.33	-1.79 ± 0.23
